In patent publication US20180169177A1, “POLYPEPTIDE SPECIFICALLY BINDING TO CD34 MOLECULE AND USE THEREOF” (Guangzhou Yidai Pharmaceutical Co., Ltd., priority 2015, published 2018):

Tests used:
[1] = molecular target: T1, CD34 molecules of K562 leukemia cells (Homo sapiens, UniProt P28906); assay: Co-immunoprecipitation of CD34 binding polypeptide, fluorescence intensity by fluorospectrophotometer; settings: 2b; for binding of polypeptide to protein co-immunoprecipitated with CD34 antibodies (fluorescence intensity): K562 total protein, CD34 antibody co-immunoprecipitation, NanoDrop 3300, FIGS. 2a
T1 construct: endogenous in cells; host or cells: K562
T1 sequence (P28906 32-385): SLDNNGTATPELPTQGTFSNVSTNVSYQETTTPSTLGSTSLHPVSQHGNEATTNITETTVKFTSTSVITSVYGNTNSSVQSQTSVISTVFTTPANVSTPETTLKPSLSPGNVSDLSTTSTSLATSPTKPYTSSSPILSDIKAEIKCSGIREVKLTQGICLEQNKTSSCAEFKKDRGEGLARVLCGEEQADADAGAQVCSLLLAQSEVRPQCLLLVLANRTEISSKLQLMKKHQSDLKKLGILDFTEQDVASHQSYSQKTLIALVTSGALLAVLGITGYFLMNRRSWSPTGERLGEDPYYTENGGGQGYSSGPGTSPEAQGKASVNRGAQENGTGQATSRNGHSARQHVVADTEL
Method: (1) extracting total protein: wash K562 cell once with pre-cooled PBS buffer solution, remove the PBS, add 500 μL non-denatured protein lysate containing protease inhibitor into the culture dish, collect cells into a 1.5 mL centrifuge tube, perform ultra sonication for 4 times, 4 seconds each time, leave them on the ice for 30 minutes, and centrifuge them at 8000 rpm at 4° C. for 20 minutes, transfer the supernatant into a new centrifuge tube to obtain total protein products;
(2) pretreatment of cellular total protein: add 50 μL confining liquid of normal goat serum into the cellular total protein products, and incubate them on the ice for 1 hour, then add 100 μL G-protein microsphere suspension (Calbiochem), incubate them at 4° C. for 20 minutes, centrifuge and remove the G-protein microsphere.
(3) Co- immunoprecipitation: add CD34 antibodies (AR) into the total protein pretreated in step (2), take it as experimental groups, set control groups, wherein equal amount of PBS antibody diluent is added, and incubate them at 4° C. for 8 hours;
(4) Binding of polypeptides and purification of G-protein antibodies: add polypeptides 17 and 19 into respective experimental groups and control group respectively, meanwhile add G-protein microsphere suspension, and incubate them at 4° C. for 4 hours;
(5) Washing and elution: centrifuge at 4° C. to remove the supernatant, use washing liquor to wash for three times, centrifuge and remove the supernatant, add 2× SDS buffer solution in a volume the same as that of G-protein microsphere, treat them at 50° C. for 10 minutes, centrifuge and remove the microspheres, transfer the supernatant into a new EP tube, and add DTT (dithiothreitol) until the final concentration is 100 mM;
(6) Testing fluorescence intensities of experimental groups and control groups using micro fluorospectro photometer (NanoDrop 3300).

[2] = molecular target: T2, CD34 molecules in K562 leukemia cells (Homo sapiens, UniProt P28906); assay: Immunofluorescence co-localisation of CD34 binding polypeptide and CD34 antibodies; settings: fixed K562 cells, confocal microscope, FIGS. 3a, 3b
T2 construct: endogenous in cells; host or cells: K562
T2 sequence (P28906 32-385): T1 sequence (P28906 32-385)
Method: (1) Preparation of cells: incubate K562 cell suspension in an incubator (37° C., 5% CO2). When the cell density reaches 80%, centrifuge and remove the culture solution, wash it once using PBS buffer solution, centrifuge it, take the cell suspension and drop it onto a glass slide coated with polylysine, and use cold acetone to fix for 10 minutes after drying.
(2) Use PBS buffer solution to wash for three times, 5 minutes each time, and then use 5% BSA confining liquid to seal it at room temperature for 1 hour.
(3) Incubation of primary antibodies: drop the primary antibody diluent of CD34 antibodies (AR) onto a slide, incubate it at 4° C. over night. Use PBS buffer solution to wash it for three times, 5 minutes each time.
(4) Incubation of second antibodies and binding to polypeptide: add polypeptides 17 and 19 into diluted anti-rabbit antibodies labeled by Alexa Fluor 561 respectively, drop them onto cover glasses, incubate them at room temperature and keep shielded from light for 1 hour. Use PBS buffer solution to wash for three times, 5 minutes each time.
(5) Use 1 μg/mL DAPI to stain at room temperature and keep shielded from light for 5 minutes, use PBS buffer solution to wash it for three times, 5 minutes each time.
(6) After mounting with anti-fluorescence quenching agent, use laser scanning confocal microscope to observe and photograph.

[3] = system: K562 cells; assay: Effect of CD34 binding polypeptide on adhesion of CD34 positive cells; type: cell-based; settings: 2 μg/mL polypeptide, 6 hours, plates of FN, Collagen I and Mareigel, versus control NC, FIG. 4
Method: Add the polypeptides 17 and 19 into incubating holes to set respective experimental groups (final concentration of polypeptide is 2 μg/mL).

[4] = system: CD34 negative cells (peripheral blood cells); assay: Magnetic separation, binding to CD34 negative blood cells; type: cell-based; settings: other blood cells
Method: Mix polypeptides 17 and 19 adhering to the surfaces of nano-magnetic beads respectively with K562 cells and peripheral blood cells, and incubate them for 1 hour. Use magnetic sorter to sort, and the sorting efficiency of K562 cells is higher than 95%. […] A schematic diagram of the example is shown in FIG. 5, and the specific operation for magnetic separation of the example can be performed according to conventional magnetic techniques in the art.

[5] = system: ductal epithelial cells and vascular endothelial cells of salivary gland; assay: Immunofluorescence binding to salivary gland tissue sections; type: cell-based, human; settings: 2 μg/mL polypeptide, 1 hour, room temperature, 6 μm frozen sections, FIG. 6a
Method: In the example, immunofluorescence is used to test the binding between polypeptide and ductal epithelial cells and vascular endothelial cells of salivary gland.
Embed the human salivary gland tissues with OCT, and slice them in a thickness of 6 μm at −20° C., fix with acetone for 15 minutes, use PBS to wash them for three times, 5 minutes each time. Incubate them with 2 μg/mL CD34 binding polypeptide (polypeptide 17) at room temperature for 1 hour, use PBS to wash for three times, 10 minutes each time. Drop 20 μL anti-fluorescence quenching agent for mounting, and preserve them being protected from light at 4° C., fluorescence microscope is used to observe and photograph.

[6] = system: MNNG/HOS cells; assay: Binding between CD34 binding polypeptide and human osteosarcoma cell line MNNG/HOS; type: cell-based; settings: 2 μg/ml, 37° C., 2 hours, CD34 negative cell line, fluorescence microscope
Method: Add 2 μg/ml polypeptides 17 and 19 into two culture dishes of well-grown MNNG/HOS cells (density of 80%) respectively, incubate them in an incubator at 37° C. for 2 hours, remove the culture solution, use 1 ml PBS to wash them for 3 times, add 5 ml culture solution, and use a fluorescence microscope to observe the binding between polypeptide and MNNG/HOS cells.

[7] = system: K562 cells; assay: Effect of CD34 binding polypeptide on proliferation of K562 cells; type: cell-based; settings: 2 μg/ml polypeptide, replenished every 48 hours, counted for 6 days, FIG. 9
Method: (1) Inoculate well-grown K562 cells in a 24-hole plate in cell concentration of 6000/ml/hole; set two experimental groups, wherein polypeptides 17 and 19 (polypeptide concentration is 2 μg/ml) are added into culture solutions respectively; set control groups, wherein polypeptide diluent in the same amount of polypeptide is added into the culture solution.
(2) Count once every 24 hours, replenish CD34 binding polypeptide (polypeptide concentration is 2 μg/ml) once every 48 hours, and the counting lasts for 6 days; repeat the experiment three times;
(3) draw cell growth curves, wherein the Y-axis is indicative of mean value of cell density each day, the X-axis is indicative of incubation time.

Substance	binding of polypeptide to protein co-immunoprecipitated with CD34 antibodies (fluorescence intensity) [1]	binding to CD34 molecules (overlap of polypeptide green fluorescence and CD34 antibody red fluorescence) [2]	adhesion of K562 cells (count of adherent cells) [3]	binding to CD34 negative cells [4]	binding to ductal epithelial cells and vascular endothelial cells of salivary gland tissue [5]	binding between fluorescent polypeptide and MNNG/HOS cells [6]	proliferation rate of K562 leukemia cells versus control group [7]	binding specificity, comparison between polypeptides ([1]; co-immunoprecipitation with CD34 antibodies, FIGS. 2a)
polypeptide 17: synthetic CD34 binding polypeptide displayed by phage 17, amino acid sequence SEQ ID NO: 1 (SSFASKKGYPFNRMCAS; Non-antibody binding protein capable of binding to CD34)	can specifically bind	have bound to CD34 molecules	inhibit the adhesion of K562 cells significantly	won't bind to CD34 negative cells	bind to ductal epithelial cells and vascular endothelial cells of salivary gland tissue	No binding	no significant difference	–
polypeptide 19: synthetic CD34 binding polypeptide displayed by phage 19, amino acid sequence SEQ ID NO: 2 (SSLGWWGPRRDFPGRRERIYLGIPWLSLLGSGAPSPV; Non-antibody binding protein capable of binding CD34)	can specifically bind	have bound to CD34 molecules	inhibit the adhesion of K562 cells significantly, especially the culture solution containing the polypeptide 19	won't bind to CD34 negative cells	–	No binding	no significant difference	better binding specificity than the polypeptide 17
